{
  "source": "a protein production outcome set (Wang et al. 2014)",
  "data": [
    {"experiment": "label from the status in PepcDB records", "values": [
      {"sequence": "MKNTIDVENDSIIAFTGGRIFTMDSEQKHAETVVINGGCIAAVGDRSILKSFPNAKIRDLKGRVLLPAFIDSHNHLSSFGCFFPTWANLIGLTEKGSVLEEIQLQTRKKPGKGWIVGFGWFDAKIGGVDLTKNDLDEISSDRPVLLIQATFHQSVVNSRALELVGITRSTPDPRCGIILRESDGMPTGVLVECAQVPVFRLAMEADTGTLANLIEAHAKELLKFGITAVHDPGVTPAAEAAYQKLHSEERLPVSVLMMPHGETILDNQLGYRLHGPVTGVGDERLRVGPVKLFADGATEETVAFSLKIGGQTINSGNYRDDFEEMLFAATEKGFRVCVHSFGNVTTDAVLTAFENAVTRAPAGFEMRPRLEHVTLISTSQIKRLAAMGGCACIQPQFLSRAQNTKQVVLDDGKWYAYGDLVKGGVTVASGSDNPGGFMDARDPIEGSVMGSTMSDGAGNAIFPDQVLPFEQWLWMYTAGGAYAGGQEKERGMLKKGMVADLVVLEGNLDPKNPPVVAETWVAGKQVYDHRV", "protein production": "failed"},
      {"sequence": "MKNYKIILTALCFICIFSCSKTETKKSIKYKDGVYKSFANIKDDWGGTAEVEIKIEEGKIVECTFLSYEKNGNLKGPEYGKVDGVIKNMGLYKIAQASVLKAAEYGQKLIETQNIDDVDVIAGASISYKLFKDAVENALQGAMQNAKENLEHHHHHH", "protein production": "failed"},
      {"sequence": "MKNYTLISPCFFGMEKMLAREITNLGYEIIKTEDGRITYKTDEFGIAKSNMWLRCAERVHLKIAEFEAKSFDELFENTKRINWSRYIPYGAQFPISKASSIKSKLYSTPDVQAIVKKAIVESLKKSYLEDGLLKEDKEKYPIFVFIHKDKVTISIDTTGDALHKRGYREKANKAPIRETLAAGLIYLTPWKAGRVLVDPMCGSGTILIEAAMIGINMAPGLNREFISEKWRTLDKKIWWDVRKDAFNKIDNESKFKIYGYDIDEESIDIARENAEIAGVDEYIEFNVGDATQFKSEDEFGFIITNPPYGERLEDKDSVKQLYKELGYAFRKLKNWSYYLITSYEDFEYEFGQKADKKRKLYNGMLKTNFFQYPGPKPPRNNK", "protein production": "not failed"},
      {"sequence": "MKPENFTSEKIPASLDEVSLNYFAHDGNKREYLTYIPSGYSHTIEAPVILNFHGFGGTASGQLALSDWRDLAEKHGIILIYPQGLELQKGGSHWNPDPVSSDSKSISDDLGFVRRLLKRISKNYSIDKSRVYATGYSNGAGMAYGLAHHMPDLIAGIAPVSGLMNDEYLSTTSGGSPVGLISFNGEEDWVRPVNGINGYLASVADISSHWARENSSTQSIAEQFAQANGDRIERTSYSRDDGLTTVEQYLVDRGGHEWFDLDIEGKDLNQLAWQFLSRLRKQD", "protein production": "failed"},
      {"sequence": "MKPIDEELLLEQLIDNVKNCKDLEAAKALLFEICGHDAILEKAVDYCIFCHEGQFRKSGEPYAVHPILVATLVGFLSENKSNILAALLHDVIEDTNCTEEELREQFGSEVLKLVLGLTKIIEIREDNLISSKSKKSLTKSALTFRNMLLASIEDVGVLIVKLCDRLHNMLTLDILREDKQKRISEETLVVYAPIAHRLGISSIKNYLEDLSFKYLMPDEYKLIDNYINSNNQEMQLGLNEFISKIELLFLSNGFRQGSFEIQKRIKHSYSIYLKMQRKGIGIEEVLDLLGVRILVEKVSDCYLALGILHTHFNPLVSRFKDYIALPKQNGYQTIHTTLFDAKSIIEAQIRTFDMHKIAEFGIAAHWKYKEDGSVVAPRLDWLTDISMQSINNLENAEDYNAIELYEYAKDSLYVEDVAVYSPKGEIFTLPRGATVLDFAYEVHTKVGLHAKSAYVNRIKVPLLTELKNGDIVRVVTSNDKFYRCSWIDSVKTGKAKASIREFCKQKIREINLASSINMLSFIFGVDKNRIETWIEKENLVRRIRQVATDSAYLKDIVNGLKKYAKKSYWFDKYEIKEQKIGNFTLYCNHKIANVDFDFCCHPKRGDAVLAFVKGGNAIVHHKLCDRADKMIDNNQDMVFIKWDSNIPKSYKLIFSLENKKGVLAEFLAFLAKMQINLLTINLSSDLNSAVDYFEITMEIPDNINPDSVKDRLKSRCKILDFTSLNDAYKES", "protein production": "failed"},
      {"sequence": "MKPIHVGLLGLGTVGGGTLTVLRRNAEEITRRAGREIRVVRAAVRNLDKAEALAGGLPLTTNPFDVVDDPEIDIVVELIGGLEPARELVMQAIANGKHVVTANKHLVAKYGNEIFAAAQAKGVMVTFEAAVAGGIPIIKALREGLTANRIEWLAGIINGTSNFILSEMRDKGAAFDDVLKEAQRLGYAEADPTFDIEGIDAAHKLTILSAIAFGIPMQFERAYTEGISQLTREDVRYAEELGYRIKLLGIARRAENGIELRVHPTLIPERRLIANVDGAMNAVLVKGDAVGPTLYYGAGAGSEPTASAVVADLVDVTRLHTADPHHRVPHLAFQPDQLADTPILPMEAVRTAYYLRLRAFDRPGVLADITRILADSSISIDAMVQKEPAEGEEQVDIILLTHVTLEKNVNAAIAKIEALDAVAGKVMRIRLEDLGAK", "protein production": "not failed"}
    ]}
  ]
}
